In US20240018502A1:

What was measured:
Test in all cases: cell-based or functional assay
[1] = target: proteinase-activated receptor 2 (PAR-2) (UniProt P55085)
[2] = target: complement protein C3 of cynomolgus monkey plasma (cynomolgus monkey)
[3] = target: human complement protein C3 (human) (UniProt P01024)
human complement protein C3 (human), sequence (P01024 23-667, chain 1 of 2): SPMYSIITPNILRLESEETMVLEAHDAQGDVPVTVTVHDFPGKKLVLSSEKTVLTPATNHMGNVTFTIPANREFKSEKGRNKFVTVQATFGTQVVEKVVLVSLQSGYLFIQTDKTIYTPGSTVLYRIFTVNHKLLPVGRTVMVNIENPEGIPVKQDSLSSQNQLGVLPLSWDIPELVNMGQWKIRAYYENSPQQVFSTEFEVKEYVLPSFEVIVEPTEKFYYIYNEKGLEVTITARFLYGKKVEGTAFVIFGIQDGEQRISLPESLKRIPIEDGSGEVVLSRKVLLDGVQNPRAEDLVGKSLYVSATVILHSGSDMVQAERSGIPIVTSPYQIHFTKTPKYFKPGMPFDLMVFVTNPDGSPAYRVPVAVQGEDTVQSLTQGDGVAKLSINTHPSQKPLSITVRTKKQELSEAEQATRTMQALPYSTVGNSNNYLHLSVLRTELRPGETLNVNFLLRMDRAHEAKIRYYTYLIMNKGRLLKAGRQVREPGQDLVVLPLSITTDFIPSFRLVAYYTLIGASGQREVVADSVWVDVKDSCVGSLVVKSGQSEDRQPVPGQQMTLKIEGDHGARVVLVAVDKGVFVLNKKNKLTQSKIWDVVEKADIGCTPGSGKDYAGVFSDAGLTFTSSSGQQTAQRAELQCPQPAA
human complement protein C3 (human), sequence (P01024 672-1663, chain 2 of 2): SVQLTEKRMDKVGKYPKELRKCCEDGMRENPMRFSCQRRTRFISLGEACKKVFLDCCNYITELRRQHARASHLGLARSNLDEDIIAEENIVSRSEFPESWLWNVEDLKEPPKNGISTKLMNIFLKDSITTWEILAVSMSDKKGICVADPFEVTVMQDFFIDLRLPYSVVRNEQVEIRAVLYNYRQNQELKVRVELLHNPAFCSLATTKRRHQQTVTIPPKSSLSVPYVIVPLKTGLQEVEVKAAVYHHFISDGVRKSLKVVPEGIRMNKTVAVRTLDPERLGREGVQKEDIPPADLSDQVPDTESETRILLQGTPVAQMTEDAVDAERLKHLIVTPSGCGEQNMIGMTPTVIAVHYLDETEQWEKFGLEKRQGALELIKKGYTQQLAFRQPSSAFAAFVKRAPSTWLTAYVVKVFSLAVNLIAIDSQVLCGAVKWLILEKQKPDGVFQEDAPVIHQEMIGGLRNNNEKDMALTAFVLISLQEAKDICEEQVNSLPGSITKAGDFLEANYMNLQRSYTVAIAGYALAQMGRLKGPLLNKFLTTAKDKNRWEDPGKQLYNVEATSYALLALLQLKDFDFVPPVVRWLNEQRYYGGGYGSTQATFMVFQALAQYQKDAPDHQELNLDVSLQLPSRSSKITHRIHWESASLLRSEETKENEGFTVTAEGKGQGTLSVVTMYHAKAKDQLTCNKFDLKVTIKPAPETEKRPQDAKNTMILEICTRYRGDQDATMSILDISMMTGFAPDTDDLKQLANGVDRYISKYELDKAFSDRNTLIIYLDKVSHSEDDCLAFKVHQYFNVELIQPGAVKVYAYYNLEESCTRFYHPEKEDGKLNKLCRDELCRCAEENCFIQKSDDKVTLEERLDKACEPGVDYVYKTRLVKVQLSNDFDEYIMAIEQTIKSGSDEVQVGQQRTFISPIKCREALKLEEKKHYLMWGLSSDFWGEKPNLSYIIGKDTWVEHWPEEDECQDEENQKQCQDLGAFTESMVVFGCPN

proteinase-activated receptor 2 (PAR-2), sequence (P55085 37-397 limits assumed): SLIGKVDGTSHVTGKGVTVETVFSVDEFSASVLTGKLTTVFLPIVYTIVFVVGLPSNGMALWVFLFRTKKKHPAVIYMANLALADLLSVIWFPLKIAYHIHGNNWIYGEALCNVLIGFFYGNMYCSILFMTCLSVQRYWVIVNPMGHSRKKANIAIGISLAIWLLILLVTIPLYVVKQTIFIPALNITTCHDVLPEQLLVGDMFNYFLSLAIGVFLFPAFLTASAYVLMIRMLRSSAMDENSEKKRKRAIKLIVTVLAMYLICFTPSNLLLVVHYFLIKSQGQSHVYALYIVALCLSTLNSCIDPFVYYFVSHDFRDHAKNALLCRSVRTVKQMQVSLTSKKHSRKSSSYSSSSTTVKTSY

| Binder | PAR-2 Cell Based Assay ED50 [1] [nM] | PAR-2 cell based assay ED50 and SKGR/SL kcat/Km, against wild-type MTSP-1 protease domain with C122S [1] [fold] | also measured |
| --- | --- | --- | --- |
| Wild-type MTSP-1 protease domain with C122S (enzyme) VVGGTDADEGEWPWQVSLHALGQGHICGASLISPNWLVSAAHCYIDDRGFRYSDPTQWTAFLGLHDQSQRSAPGVQERRLKRIISHPFFNDFTFDYDIALLELEKPAEYSSMVRPISLPDASHVFPAGKAIWVTGWGHTQYGGTGALILQKGEIRVINQTTCENLLPQQITPRMMCVGFLSGGVDSCQGDSGGPLSSVEADGRIFQAGVVSWGDGCAQRNKPGVYTRLPLFRDWIKENTGV | 1.4 |  |  |
| Modified MTSP-1 protease domain Q38H/I41S/D60bT/F60eS/Y60gW/D96Y/F97E/ins97aV/T98G/F99L/C122S/G151H/Q175L/Q192D (enzyme) VVGGTDADEGEWPWQVSLHALGHGHSCGASLISPNWLVSAAHCYIDTRGSRWSDPTQWTAFLGLHDQSQRSAPGVQERRLKRIISHPFFNYEVGLDYDIALLELEKPAEYSSMVRPISLPDASHVFPAGKAIWVTGWGHTQYGGTHALILQKGEIRVINQTTCENLLPQLITPRMMCVGFLSGGVDSCDGDSGGPLSSVEADGRIFQAGVVSWGDGCAQRNKPGVYTRLPLFRDWIKENTGV |  | > 30 |  |
| Q38H/I41A/D60bV/F60eR/Y60gW/F97T/ins97aE/T98G/F99L/C122S/G151N/Q175L/Q192D (enzyme) VVGGTDADEGEWPWQVSLHALGHGHACGASLISPNWLVSAAHCYIDVRGRRWSDPTQWTAFLGLHDQSQRSAPGVQERRLKRIISHPFFNDTEGLDYDIALLELEKPAEYSSMVRPISLPDASHVFPAGKAIWVTGWGHTQYGGTNALILQKGEIRVINQTTCENLLPQLITPRMMCVGFLSGGVDSCDGDSGGPLSSVEADGRIFQAGVVSWGDGCAQRNKPGVYTRLPLFRDWIKENTGV | 690 |  | C3 destruction ED50 (mg/kg), in vivo, intravenous injection, cynomolgus monkey [2]: 0.2 mg/kg |
| Q38H/I41S/D60bT/F60eS/Y60gW/D96K/F97G/ins97aV/T98P/F99L/C122S/G151H/Q175L/Q192D (enzyme) VVGGTDADEGEWPWQVSLHALGHGHSCGASLISPNWLVSAAHCYIDTRGSRWSDPTQWTAFLGLHDQSQRSAPGVQERRLKRIISHPFFNKGVPLDYDIALLELEKPAEYSSMVRPISLPDASHVFPAGKAIWVTGWGHTQYGGTHALILQKGEIRVINQTTCENLLPQLITPRMMCVGFLSGGVDSCDGDSGGPLSSVEADGRIFQAGVVSWGDGCAQRNKPGVYTRLPLFRDWIKENTGV |  |  | C3 destruction ED50 (mg/kg), in vivo, intravenous injection, cynomolgus monkey [2]: 0.07 mg/kg; % Inhibition of CH50, human citrated plasma, 3.2 nM test article [3]: -5%; % Inhibition of CH50, human citrated plasma, 16 nM test article [3]: 1%; % Inhibition of CH50, human citrated plasma, 80 nM test article [3]: 40%; % Inhibition of CH50, human citrated plasma, 400 nM test article [3]: 84%; % Inhibition of CH50, human citrated plasma, 2000 nM test article [3]: 92%; EC50 (nM), cleavage of purified hC3 in vitro [3]: 6.86 nM |
| Modified MTSP-1 protease domain Q38H/I41A/D60bT/F60eK/Y60gW/F97T/ins97aE/T98G/F99L/C122S/G151N/Q175L/Q192D (enzyme) VVGGTDADEGEWPWQVSLHALGHGHACGASLISPNWLVSAAHCYIDTRGKRWSDPTQWTAFLGLHDQSQRSAPGVQERRLKRIISHPFFNDTEGLDYDIALLELEKPAEYSSMVRPISLPDASHVFPAGKAIWVTGWGHTQYGGTNALILQKGEIRVINQTTCENLLPQLITPRMMCVGFLSGGVDSCDGDSGGPLSSVEADGRIFQAGVVSWGDGCAQRNKPGVYTRLPLFRDWIKENTGV |  | > 30 |  |
| Modified MTSP-1 protease domain I41R/F97T/Ins97aE/T98G/F99L/C122S/G151N/Q175L/Q192E (enzyme) VVGGTDADEGEWPWQVSLHALGQGHRCGASLISPNWLVSAAHCYIDDRGFRYSDPTQWTAFLGLHDQSQRSAPGVQERRLKRIISHPFFNDTEGLDYDIALLELEKPAEYSSMVRPISLPDASHVFPAGKAIWVTGWGHTQYGGTNALILQKGEIRVINQTTCENLLPQLITPRMMCVGFLSGGVDSCEGDSGGPLSSVEADGRIFQAGVVSWGDGCAQRNKPGVYTRLPLFRDWIKENTGV |  | > 30 |  |
| Modified MTSP-1 protease domain Q38H/I41S/D60bT/F60eS/Y60gW/D96K/F97D/ins97aA/T98P/F99L/C122S/G151N/Q175L/Q192D (enzyme) VVGGTDADEGEWPWQVSLHALGHGHSCGASLISPNWLVSAAHCYIDTRGSRWSDPTQWTAFLGLHDQSQRSAPGVQERRLKRIISHPFFNKDAPLDYDIALLELEKPAEYSSMVRPISLPDASHVFPAGKAIWVTGWGHTQYGGTNALILQKGEIRVINQTTCENLLPQLITPRMMCVGFLSGGVDSCDGDSGGPLSSVEADGRIFQAGVVSWGDGCAQRNKPGVYTRLPLFRDWIKENTGV |  | > 30 |  |
| Modified MTSP-1 protease domain Q38H/I41S/D60bT/F60eS/Y60gW/D96V/F97G/ins97aV/T98P/F99L/C122S/G151H/Q175L/Q192D (enzyme) VVGGTDADEGEWPWQVSLHALGHGHSCGASLISPNWLVSAAHCYIDTRGSRWSDPTQWTAFLGLHDQSQRSAPGVQERRLKRIISHPFFNVGVPLDYDIALLELEKPAEYSSMVRPISLPDASHVFPAGKAIWVTGWGHTQYGGTHALILQKGEIRVINQTTCENLLPQLITPRMMCVGFLSGGVDSCDGDSGGPLSSVEADGRIFQAGVVSWGDGCAQRNKPGVYTRLPLFRDWIKENTGV |  | > 30 |  |
| Q38H/I41A/D60bT/F60eK/Y60gW/F97T/ins97aE/T98G/F99L/C122S/G151N/Q175L/Q192D (enzyme) VVGGTDADEGEWPWQVSLHALGHGHACGASLISPNWLVSAAHCYIDTRGKRWSDPTQWTAFLGLHDQSQRSAPGVQERRLKRIISHPFFNDTEGLDYDIALLELEKPAEYSSMVRPISLPDASHVFPAGKAIWVTGWGHTQYGGTNALILQKGEIRVINQTTCENLLPQLITPRMMCVGFLSGGVDSCDGDSGGPLSSVEADGRIFQAGVVSWGDGCAQRNKPGVYTRLPLFRDWIKENTGV | 1900 |  | C3 destruction ED50 (mg/kg), in vivo, intravenous injection, cynomolgus monkey [2]: 0.2 mg/kg |
| Modified MTSP-1 protease domain Q38H/I41S/D60bT/F60eS/Y60gW/D96K/F97G/ins97aV/T98P/F99L/C122S/G151H/Q175L/Q192D (enzyme) VVGGTDADEGEWPWQVSLHALGHGHSCGASLISPNWLVSAAHCYIDTRGSRWSDPTQWTAFLGLHDQSQRSAPGVQERRLKRIISHPFFNKGVPLDYDIALLELEKPAEYSSMVRPISLPDASHVFPAGKAIWVTGWGHTQYGGTHALILQKGEIRVINQTTCENLLPQLITPRMMCVGFLSGGVDSCDGDSGGPLSSVEADGRIFQAGVVSWGDGCAQRNKPGVYTRLPLFRDWIKENTGV |  | > 30 | inhibition of classical pathway hemolytic assay (CH50) in human plasma at the highest dose (2000 nM) [3]: 94% |
| Modified MTSP-1 protease domain Q38H/I41A/D60bV/F60eR/Y60gW/F97T/ins97aE/T98G/F99L/C122S/G151N/Q175L/Q192D (enzyme) VVGGTDADEGEWPWQVSLHALGHGHACGASLISPNWLVSAAHCYIDVRGRRWSDPTQWTAFLGLHDQSQRSAPGVQERRLKRIISHPFFNDTEGLDYDIALLELEKPAEYSSMVRPISLPDASHVFPAGKAIWVTGWGHTQYGGTNALILQKGEIRVINQTTCENLLPQLITPRMMCVGFLSGGVDSCDGDSGGPLSSVEADGRIFQAGVVSWGDGCAQRNKPGVYTRLPLFRDWIKENTGV |  | > 30 |  |
| Q38H/I41S/D60bT/F60eS/Y60gW/F97D/ins97aV/T98P/F99L/C122S/G151H/Q175L/Q192D (enzyme) VVGGTDADEGEWPWQVSLHALGHGHSCGASLISPNWLVSAAHCYIDTRGSRWSDPTQWTAFLGLHDQSQRSAPGVQERRLKRIISHPFFNDDVPLDYDIALLELEKPAEYSSMVRPISLPDASHVFPAGKAIWVTGWGHTQYGGTHALILQKGEIRVINQTTCENLLPQLITPRMMCVGFLSGGVDSCDGDSGGPLSSVEADGRIFQAGVVSWGDGCAQRNKPGVYTRLPLFRDWIKENTGV | 640 |  |  |
| Modified MTSP-1 protease domain Q38H/I41S/D60bT/F60eS/Y60gW/D96L/F97D/ins97aG/T98N/F99L/C122S/G151H/Q175L/Q192E (enzyme) VVGGTDADEGEWPWQVSLHALGHGHSCGASLISPNWLVSAAHCYIDTRGSRWSDPTQWTAFLGLHDQSQRSAPGVQERRLKRIISHPFFNLDGNLDYDIALLELEKPAEYSSMVRPISLPDASHVFPAGKAIWVTGWGHTQYGGTHALILQKGEIRVINQTTCENLLPQLITPRMMCVGFLSGGVDSCEGDSGGPLSSVEADGRIFQAGVVSWGDGCAQRNKPGVYTRLPLFRDWIKENTGV |  | > 30 |  |
| I41R/F97T/Ins97aE/T98G/F99L/C122S/G151N/Q175L/Q192E (enzyme) VVGGTDADEGEWPWQVSLHALGQGHRCGASLISPNWLVSAAHCYIDDRGFRYSDPTQWTAFLGLHDQSQRSAPGVQERRLKRIISHPFFNDTEGLDYDIALLELEKPAEYSSMVRPISLPDASHVFPAGKAIWVTGWGHTQYGGTNALILQKGEIRVINQTTCENLLPQLITPRMMCVGFLSGGVDSCEGDSGGPLSSVEADGRIFQAGVVSWGDGCAQRNKPGVYTRLPLFRDWIKENTGV | 2600 |  |  |
| Q38H/I41S/D60bT/F60eS/Y60gW/D96K/F97D/ins97aA/T98P/F99L/C122S/G151H/Q175L/Q192D (enzyme) VVGGTDADEGEWPWQVSLHALGHGHSCGASLISPNWLVSAAHCYIDTRGSRWSDPTQWTAFLGLHDQSQRSAPGVQERRLKRIISHPFFNKDAPLDYDIALLELEKPAEYSSMVRPISLPDASHVFPAGKAIWVTGWGHTQYGGTHALILQKGEIRVINQTTCENLLPQLITPRMMCVGFLSGGVDSCDGDSGGPLSSVEADGRIFQAGVVSWGDGCAQRNKPGVYTRLPLFRDWIKENTGV | 420 |  |  |
| Q38H/I41A/D60bT/F60eK/Y60gW/F97T/ins97aE/T98G/F99L/C122S/G151H/Q175L/Q192D (enzyme) VVGGTDADEGEWPWQVSLHALGHGHACGASLISPNWLVSAAHCYIDTRGKRWSDPTQWTAFLGLHDQSQRSAPGVQERRLKRIISHPFFNDTEGLDYDIALLELEKPAEYSSMVRPISLPDASHVFPAGKAIWVTGWGHTQYGGTHALILQKGEIRVINQTTCENLLPQLITPRMMCVGFLSGGVDSCDGDSGGPLSSVEADGRIFQAGVVSWGDGCAQRNKPGVYTRLPLFRDWIKENTGV | 560 |  |  |
| Q38H/I41A/D60bV/F60eR/Y60gW/F97T/ins97aE/T98G/F99L/C122S/G151H/Q175L/Q192D (enzyme) VVGGTDADEGEWPWQVSLHALGHGHACGASLISPNWLVSAAHCYIDVRGRRWSDPTQWTAFLGLHDQSQRSAPGVQERRLKRIISHPFFNDTEGLDYDIALLELEKPAEYSSMVRPISLPDASHVFPAGKAIWVTGWGHTQYGGTHALILQKGEIRVINQTTCENLLPQLITPRMMCVGFLSGGVDSCDGDSGGPLSSVEADGRIFQAGVVSWGDGCAQRNKPGVYTRLPLFRDWIKENTGV | 430 |  |  |
| Modified MTSP-1 protease domain Q38H/I41A/D60bV/F60eR/Y60gW/D96I/F97N/T98G/F99L/C122S/G151N/Q175L/Q192D (enzyme) VVGGTDADEGEWPWQVSLHALGHGHACGASLISPNWLVSAAHCYIDVRGRRWSDPTQWTAFLGLHDQSQRSAPGVQERRLKRIISHPFFNINGLDYDIALLELEKPAEYSSMVRPISLPDASHVFPAGKAIWVTGWGHTQYGGTNALILQKGEIRVINQTTCENLLPQLITPRMMCVGFLSGGVDSCDGDSGGPLSSVEADGRIFQAGVVSWGDGCAQRNKPGVYTRLPLFRDWIKENTGV |  | > 30 |  |
| Q38H/I41A/D60bV/F60eR/Y60gW/D96I/F97N/T98G/F99L/C122S/G151N/Q175L/Q192D (enzyme) VVGGTDADEGEWPWQVSLHALGHGHACGASLISPNWLVSAAHCYIDVRGRRWSDPTQWTAFLGLHDQSQRSAPGVQERRLKRIISHPFFNINGLDYDIALLELEKPAEYSSMVRPISLPDASHVFPAGKAIWVTGWGHTQYGGTNALILQKGEIRVINQTTCENLLPQLITPRMMCVGFLSGGVDSCDGDSGGPLSSVEADGRIFQAGVVSWGDGCAQRNKPGVYTRLPLFRDWIKENTGV | 150 |  | EC50 (nM), cleavage of purified hC3 in vitro [3]: 2.87 nM |
